Experimental data published in patent publication US20240026407A1, “MODIFICATION OF SAPONINS” (GLAXOSMITHKLINE BIOLOGICALS SA, priority 2020, published 2024).

B1: 1004 (protein)
chain: METQVIKPIAVGDLQITRFTIEHFPGDALGIPTATPRMNWTYSRAVPDGSQILLKISRRVPGSPAKEECTYLPPEDNVLVPWQFTPLASREEVFATVQLVSAAHKPLSDPSATLHFEAGLMQEYEHVADFVGPSWAEPETDHRHLPLIRTEIAIKAKPKRARLYLSALGLVEAEINGVKIGNDALIPGWTNYEQRVQCWTYDVTGELNEGANAMGFWLGDGWYRGRLGFDGGYVNYYGDRLGVFAQLEVEYEDGGIEHVYSNAWDRQWKASLGPIVCSDLCEGERYDARLEQPGWSEPGFDDSSWKPVAEIFYDPAKIENPDTSPVRAQEINEPVSITRTGDTPDGRGIWLVDFGQNCTQRIHLHVKGLEAGQSVELHHVEVLEPNGEIATRTLRRGQQHDIYTSNGTDAWWEPRFAMHGFRYAQIEGVAGELTAADIECHVYHSVMDRAGELETSNPLLNRLHANALWSMRSNFVSVPQDCPQRDERMGWTGDICLFAPTAAYLYDVYGFLKSWLKDVRADQVKWGTVPFYVPFIPLGGWAHPQAISTWGDSAVEVPWVLYMESGDPQILADSYDLSRDWIDEVAGYLSPDGVWDRRPDYVLGQLGDWLDPTAPPDDPTQAMTEKELVATAFFARSCAQAEQIARILGNNEDAVRFGDLRRHVTSGFLARFTNLDGTMTSDTQCAYALAIAFGLLDGEPVRRVKAGNRLAKLVRESGGKVSTGFAGTPFVLPALTMTGHNEEAYGLLLSEECPSWLYQVKMGATTTWERWDSMRPDGSLNPGGMTSFNHYALGSVAEWMHAHIGGLEAIEAGWKRFRVAPVIGGGLDHASTSHVTPYGKASVAWKTSAEGVELDVTVPIGATAVVELPDHEPTELAGGTHHLVVAL
modifications: Bifidobacterium moukalabense
B2: 1065 (protein, listed as Chitinophaga pinensis)
chain: MRIILTAAFLLITSIVSAQYNAWKGSWITNTEDTTATKAPYLRKTFTLDKKVVSATAYVAGVGYHIVFVNGKPVTDAVLEQAYTRYDKRLLYKVYDVTALLSRKGTQSIAAELGNGWYNIQSHAVWGFQNAPWRKTPRLLLDLVIRYDDGTTETIATDNSWKCATGPSQFNCLYSGEIYDARQEVAGWNQTAFNDAGWKQVLLTSSPGGALHEQIMPSIKVIRRIKPVSMKNLGNGKYLFDMGQNFAGVATLNVKGQAGTKVTMYYGEVLKNGELDMVHNTEHMRSMPGELRFQTDVYFLKGGAREVFTPRFVYHGFQYVQIETDQPLELNVHSLEGLFYSTAFEEAGHFTSSDPMINKLYEAARQSYRSNFLSIPTDCPQREKNGWTADAHISTEIGLWNYQTTEGYRKWLHDVRDAQLPSGAMPGIAPSNGWGYDRPGNEEFTFGPAWGSALGFVTWYMYLYHNDTALVREHYDAFKKYTDAVAKGAEGYLFKHGLDDWMSLVKTPMPLTSTAYFYTDAELVAKMARVLGNKADEQTYSRLADSIRAAFNRTYFDANTGVYKDSTMTALSAAVFHGLASPEAAAKTAAQLSSKVQRSNYHADFGVMGTKYVLPTLSDYGYADVAFRMLTDTGYAGWAHWIANGATTLFEDWPGELSHNHIFFGDYCAWYYKTLAGIRPDEAAPGFQHFYIQPAFVKALNFVKADYASSAGMIKVEWKRKGNSIKLSVEIPSRATVRLPAGMTDDKNATRITLNGQQFDQVVLTPGKYTFNLK
B3: 1020 (protein, listed as Rhodonellum psychrophilum)
chain: MKSLSKILTTVTLLLAVFACEKKPAEIVLFSMMDGVEGLSGKTEYLASPYVTAGDRVYMVGHQDGSFPDLGWHVEGEMGGIWNHPIKLMDGFTNAIEIEGNRFCLDNASAFINYPFANKHEFKNSVPGLEVERFQFVPDGKQGLVIEYLFKNVDKSKKSFVFEFDGHTDLMPVWLGDRAGMIDHVDNLVFDDQRQAWRGKDEGNEWYVLFGANQTASHSQGDSSLCNYFPQGKGKSAKLSYEMELSANGEGSLKFFIAGSYSGLDDVQKTFDLIKTHPETFLKDKRTNYDRIASLSKITIPDKELEKTFEWVKYNTEWLVRDIPEVGRGLGAGMPDYPWWFGVDNEYTLKGAIATGRKDLVYATVDLIHKLSVQENDNGKIVHEVSTNGVVFNPGNINETPQFASLIWYVYQWTGDKAFLEKYYPTIKKGLVWLMEENDKDGNLFPDGYGMMEIHGLESEMIDVAVYTQKAFADAAQMALLMAEPEVARSYQQTADLMKAKINTDFWVESANSYADFIGTAAETFPLVDAAIIRADTLGKPWAVEELKLLRKKLSTYPRNKKQGFVLFHNWVVNTPMEMGIADPEKAIKALDKGSKFVNPFGVFVTGIDRDEASQSEDGSFTGSKVFSYTGAVMTLPTGVQAISENNYGRPDQALAYLQMMVKSFGFALPGSIYEVSPDYGMMAQAWNLYSFGVPIVTQFFGIQPDAGNKVIHISTQMPSDWDSAKIEKVLIGDNVLTLSFLRVEGEIQLQINQTKGDWQIDFVFPTGKYNVWKVGGKEVEKTRVGNQEVFRTSGTSISASFK
B4: 1012 (protein)
chain: MKSRLKQQIFAISLLACTAISPANALQTHLLREQFQNPSDEAKPWTFWYWMFGAVSKEGITADLEAMKRAGLGGTYLMPIKGIKEGPQYNGKAQQLTPEWWEMVRFSMEEADRLGLKLGMHICDGFALAGGPWMTPKESMQKIVWSDTIVDGGKIKGLHLPQPEAYEGFYEDISLFALPVKEEAADVMPAQITCANIATGNHIDIKKTVNMDDAGVIRSSYPCYIQYEYEQPFTCRNIEIILSGNNYQAHRLKVMASDDGVNYRLVKQLVPARQGWQNTDENSTHAIPATTARYFRFYWTPEGSEPGSEDMDAAKWKPNLKIKELRLHREARLDQWEGKAGLVWRVASSTKKEEIGEQDCYALSQIINLTDPFKNSPSDNFKERTLTATLPKGKWKLLRMGHTATGHTNATAGGGKGLECDKFNPKAVRKQFDNWFAQAFVKTNPDVARRVLKYMHVDSWECGSQNWSDTFAAEFRKRRGYDLMPYLPLLAGIPMESAERSEKILRDVRTTIGELVVDVFYQVLADCAKEYDCQFSAECVAPTMVSDGLLHYQKVDLPMGEFWLNSPTHDKPNDMLDAISGAHIYGKNIIQAEGFTEVRGTWNEHPGILKALLDRNYALGINRLFFHVYVHNPWLDRKPGMTLDGIGLFFQRDQTWWNKGAKAFCEYITRCQSLLQYGHPVADIAVFTGEEMPRRSILPERLVPSLPGIFGAERVESERIRLANEGQPLRVRPVGVTHSANMSDPEKWVNPLRGYAYDSFNKDALLRLAKAENGRMTLPGGASYKVLVLPLPRPMNPDPAALSPEVKQKINELKEAGILIPSLPYKEDDFSSYGLERDLIVPENIAWTHRQGEQGDIYFIANQLEETRTFTASMRIDGRKPECWNPVTGEINADIPYEQKSHRTEITLTLAPNESVFIVYPAEEDDKETSEKERKEKKDSVKEASETGLEATEYTVTFTANGKTIQRQELFDWSKEEDEQIRYYSGTAVYKTTFRWKSKVKEDQQVYLNLGKVCDLATVRVNGIDCGTIWTAPYRADITAALKKGVNELEIEVTNTWANALKGADEGKAPFDGIWTNAKYRRAENTLLPAGLLGPLNFDVANKNK
modifications: Bacteroides thetaiotaomicron

What was measured:
Format in all cases: biochemical, Quillaja saponaria
[1] = Experiment 6-1: screening of rhamnosidases for derhamnosylation of saponins in treated bark extract (2%), QS-17 2296 to QS-18 2150 (PAR %); conditions: TBE 2%, pH 7.5, 30 degC, 18 h; TIC peak area ratio percent of rhamnosylated starting saponin to derhamnosylated product, LCMS/MS; negative controls 4.876, 5.225
[2] = Experiment 6-1: specificity of rhamnosidases towards other rhamnose residues (C3 saccharide rhamnose, C28 saccharide rhamnose); conditions: TBE 2%, pH 7.5, 30 degC, 18 h; LCMS/MS; negative controls 0.18, 0.17
[3] = Experiment 6-1: screening of rhamnosidases for derhamnosylation of saponins in treated bark extract (2%), QS-17 2310 to QS-18 2164 (PAR %); conditions: TBE 2%, pH 7.5, 30 degC, 18 h; TIC peak area ratio percent, LCMS/MS; negative controls 3.061, 2.429
[4] = Experiment 6-1: screening of rhamnosidases for derhamnosylation of saponins in treated bark extract (2%), desglucosyl-QS-17 2134 to QS-21 1988 (PAR %); conditions: TBE 2%, pH 7.5, 30 degC, 18 h; TIC peak area ratio percent, LCMS/MS; negative controls 2.719, 2.158

| Molecule | QS-17 (PAR %) [1] | ratio PP/QS-21 [2] | Peak57 (PAR %) [3] | Peak75 (PAR %) [4] |
| --- | --- | --- | --- | --- |
| B1 | 5.076% | 0.16 | 2.942% | 2.553% |
| B2 | 5.015% | 0.17 | 3.194% | 2.458% |
| B3 | 5.058% | 0.17 | 3.288% | 2.360% |
| B4 | 5.068% | 0.16 | 3.249% | 2.610% |
